Publication doi:10.1101/2020.10.23.350348

Molecular target: transferrin receptor (UniProt P02786)
Assay: SPR

transferrin receptor, sequence (P02786 whole entry): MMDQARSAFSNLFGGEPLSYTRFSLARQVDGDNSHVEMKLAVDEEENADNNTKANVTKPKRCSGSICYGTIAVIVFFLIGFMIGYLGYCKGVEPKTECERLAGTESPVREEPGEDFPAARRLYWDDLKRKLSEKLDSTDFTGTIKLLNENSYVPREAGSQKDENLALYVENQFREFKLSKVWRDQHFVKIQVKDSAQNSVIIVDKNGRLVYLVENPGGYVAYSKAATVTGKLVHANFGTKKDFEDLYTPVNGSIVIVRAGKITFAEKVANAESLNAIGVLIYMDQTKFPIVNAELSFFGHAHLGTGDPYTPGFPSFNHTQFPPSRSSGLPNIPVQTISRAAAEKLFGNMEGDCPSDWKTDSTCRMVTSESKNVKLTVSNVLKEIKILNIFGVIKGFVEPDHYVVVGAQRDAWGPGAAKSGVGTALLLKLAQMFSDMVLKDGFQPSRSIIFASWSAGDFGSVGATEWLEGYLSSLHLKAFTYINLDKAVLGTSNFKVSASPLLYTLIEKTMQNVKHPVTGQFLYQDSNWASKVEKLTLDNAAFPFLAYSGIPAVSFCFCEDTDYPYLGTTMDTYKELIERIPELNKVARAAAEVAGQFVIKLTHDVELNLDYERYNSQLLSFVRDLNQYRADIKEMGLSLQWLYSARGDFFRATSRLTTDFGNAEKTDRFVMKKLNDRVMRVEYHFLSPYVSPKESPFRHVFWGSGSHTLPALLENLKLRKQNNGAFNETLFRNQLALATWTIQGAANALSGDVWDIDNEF

In the case of “SARS-CoV-2 spike protein (from UniProt P0DTC2 14-1273) (natural protein)”, the Kd is reported as 2.95 nM.
